Data published in article PMC6351632.

Molecular target: Fasciola hepatica Sigma class glutathione transferase 1 (Fasciola hepatica)
Assay: crystal structure; FhGST-S1 with glutathione (holo/CGL and GSSG complexes), microbatch, 0.15 M KBr, 20% PEG 3350; space group P212121, two subunits forming a dimer related by a molecular dyad

Fasciola hepatica Sigma class glutathione transferase 1 (enzyme)
stoichiometry N: 2
